Earlier results, collected in paper PMC6868133 (Scientific Reports, 2019).
Where two headings read alike, the source gives them in different places.

Experiments:
[1] = human, in vivo
[2] = rhesus monkey, in vivo, sc
[3] = tested on: fasting plasma glucose levels; settings: humans
Source text: The goal of the current study was to evaluate the pharmacokinetic properties of a single-dose of PT320 in healthy nonhuman primates. […] Systemic Exenatide ...

[4] = Long-Acting (> 24 hr), ref supplement [3-5]

Substance: Semaglutide
- Half Life (T1/2) [4]: 6 to 7 days

Substance: dulaglutide
- Half Life (T1/2) [4]: 4 days
- T1/2 (long-acting GLP-1R agonists): 4 days

Substance: lixisenatide
- Half Life (T1/2) (Short-Acting (< 24 hr), ref supplement [1,2]): 0.12 days
- T1/2 (short-acting GLP-1R agonist, administered once daily): 0.12 days

Substance: Exenatide
- patients with higher-titer antibodies (≥625) [1]: 5%
- patients with low anti-Exenatide antibody titers (≤125) [1]: 32%
- terminal disappearance half-life from plasma [2]: 46.8 to 116 min
- minimally effective concentration (level required to reduce fasting plasma glucose levels) [3]: approximately 50 pg/ml

Substance: albiglutide
- Half Life (T1/2) [4]: 6 to 7 days
- T1/2 (long-acting GLP-1R agonists): 6 to 7 days
